Source: the supplement of paper PMC10567573

B1: NP_002788.1 (parent)
chain: DGWIRVSSDNVADLHEKYSGSTP

Variants of: B1
Test: protein stability index of a GFP-peptide fusion (GPS, HEK-293T) (PSI 1-6); higher = more stable
Conditions: c terminus: native
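Further: lentivirally expressed fusion library, cells FACS-sorted into six equal-sized GFP/DsRed ratio bins, PSI computed from sequencing read fractions per bin weighted by bin number.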

Row | Variant | protein stability index
1 | DGWIRVSSDNVADNHEKYSGSTP [L14N] | 2.98
2 | DGWIRVSSDNVADFHEKYSGSTP [L14F] | 1.96
3 | DGWIRVSSDNVADHHEKYSGSTP [L14H] | 2.06
4 | DGWIRVSSDNVADQHEKYSGSTP [L14Q] | 2.89
5 | DGWIRVSSDNVADPHEKYSGSTP [L14P] | 2.57
6 | DGWIRVSSDNVADAHEKYSGSTP [L14A] | 2.84
7 | DGWIRVSSDNVADIHEKYSGSTP [L14I] | 2.35
8 | DGWIRVSSDNVADYHEKYSGSTP [L14Y] | 2.5
9 | DGWIRVSSDNVADRHEKYSGSTP [L14R] | 2.41
10 | DGWIRVSSDNVADSHEKYSGSTP [L14S] | 3.01
11 | DGWIRVSSDNVADMHEKYSGSTP [L14M] | 2.65
12 | DGWIRVSSDNVADLCEKYSGSTP [H15C] | 2.73
13 | DGWIRVSSDNVADLFEKYSGSTP [H15F] | 2.82
14 | DGWIRVSSDNVADLGEKYSGSTP [H15G] | 2.71
15 | DGWIRVSSDNVADLLEKYSGSTP [H15L] | 2.66
16 | DGWIRVSSDNVADLTEKYSGSTP [H15T] | 2.77
17 | DGWIRVSSDNVADLDEKYSGSTP [H15D] | 2.85
18 | DGWIRVSSDNVADLVEKYSGSTP [H15V] | 2.4
19 | DGWIRVSSDNVADLPEKYSGSTP [H15P] | 3.06
20 | DGWIRVSSDNVADLNEKYSGSTP [H15N] | 2.92
21 | DGWIRVSSDNVADLWEKYSGSTP [H15W] | 2.39
22 | DGWIRVSSDNVADLREKYSGSTP [H15R] | 2.33
23 | DGWIRVSSDNVADLIEKYSGSTP [H15I] | 2.68
24 | DGWIRVSSDNVADLAEKYSGSTP [H15A] | 2.51
25 | DGWIRVSSDNVADLSEKYSGSTP [H15S] | 2.47

Row | Variant | protein stability index
26 | DGWIRVSSDNVADLKEKYSGSTP [H15K] | 2.77
27 | DGWIRVSSDNVADLMEKYSGSTP [H15M] | 2.64
28 | DGWIRVSSDNVADLEEKYSGSTP [H15E] | 2.98
29 | DGWIRVSSDNVADLQEKYSGSTP [H15Q] | 2.76
30 | DGWIRVSSDNVADLYEKYSGSTP [H15Y] | 2.42
31 | DGWIRVSSDNKADLHEKYSGSTP [V11K] | 1.78
32 | DGWIRVSSDNSADLHEKYSGSTP [V11S] | 2.47
33 | DGWIRVSSDNPADLHEKYSGSTP [V11P] | 2.73
34 | DGWIRVSSDNTADLHEKYSGSTP [V11T] | 2.48
35 | DGWIRVSSDNNADLHEKYSGSTP [V11N] | 2.69
36 | DGWIRVSSDNLADLHEKYSGSTP [V11L] | 2.21
37 | DGWIRVSSDNYADLHEKYSGSTP [V11Y] | 2.67
38 | DGWIRVSSDNMADLHEKYSGSTP [V11M] | 2.64
39 | DGWIRVSSDNRADLHEKYSGSTP [V11R] | 1.87
40 | DGWIRVSSDNWADLHEKYSGSTP [V11W] | 2.4
41 | DGWIRVSSDNQADLHEKYSGSTP [V11Q] | 2.38
42 | DGWIRVSSDNVAWLHEKYSGSTP [D13W] | 2.71
43 | DGWIRVSSDNVALLHEKYSGSTP [D13L] | 2.58
44 | DGWIRVSSDNVAQLHEKYSGSTP [D13Q] | 2.47
45 | DGWIRVSSDNVATLHEKYSGSTP [D13T] | 2.47
46 | DGWIRVSSDNVAPLHEKYSGSTP [D13P] | 2.3
47 | DGWIRVSSDNVAMLHEKYSGSTP [D13M] | 2.53
48 | DGWIRVSSDNVASLHEKYSGSTP [D13S] | 2.52
49 | DGWIRVSSDNVAKLHEKYSGSTP [D13K] | 2.71
50 | DGWIRVSSDNVANLHEKYSGSTP [D13N] | 2.4

Row | Variant | protein stability index
51 | DGWIRVSSDNVACLHEKYSGSTP [D13C] | 2.6
52 | DGWIRVSSDNVAELHEKYSGSTP [D13E] | 2.72
53 | DGWIRVSSDNVAALHEKYSGSTP [D13A] | 2.66
54 | DGWIRVSSDNVAILHEKYSGSTP [D13I] | 2.53
55 | DGWIRVSSDNVAGLHEKYSGSTP [D13G] | 2.42
56 | DGWIRVSSDNVAHLHEKYSGSTP [D13H] | 2.38
57 | DGWIRVSSDNVAVLHEKYSGSTP [D13V] | 2.75
58 | DGWIRVSSDNVAFLHEKYSGSTP [D13F] | 2.62
59 | DGWIRVSSDNVARLHEKYSGSTP [D13R] | 2.04
60 | DGWIRVSSDNVAYLHEKYSGSTP [D13Y] | 2.54
61 | DGWIRVSSDNVNDLHEKYSGSTP [A12N] | 2.48
62 | DGWIRVSSDNVLDLHEKYSGSTP [A12L] | 2.88
63 | DGWIRVSSDNVKDLHEKYSGSTP [A12K] | 2.33
64 | DGWIRVSSDNVFDLHEKYSGSTP [A12F] | 2.32
65 | DGWIRVSSDNVGDLHEKYSGSTP [A12G] | 2.68
66 | DGWIRVSSDNVRDLHEKYSGSTP [A12R] | 2.46
67 | DGWIRVSSDNVMDLHEKYSGSTP [A12M] | 2.3
68 | DGWIRVSSDNVEDLHEKYSGSTP [A12E] | 2.52
69 | DGWIRVSSDNVCDLHEKYSGSTP [A12C] | 2.57
70 | DGWIRVSSDNVVDLHEKYSGSTP [A12V] | 2.44
71 | DGWIRVSSDNVWDLHEKYSGSTP [A12W] | 2.46
72 | DGWIRVSSDNVPDLHEKYSGSTP [A12P] | 2.45
73 | DGWIRVSSDNVSDLHEKYSGSTP [A12S] | 2.24
74 | DGWIRVSSDNVIDLHEKYSGSTP [A12I] | 2.59
75 | DGWIRVSSDNVYDLHEKYSGSTP [A12Y] | 2.73

Row | Variant | protein stability index
76 | DGWIRVSSDNVQDLHEKYSGSTP [A12Q] | 2.25
77 | DGWIRVSSDNVTDLHEKYSGSTP [A12T] | 2.43
78 | DGWIRVSSDNVHDLHEKYSGSTP [A12H] | 2.85
79 | DGWIRVSSDNVADLHWKYSGSTP [E16W] | 2.65
80 | DGWIRVSSDNVADLHGKYSGSTP [E16G] | 3.13
81 | DGWIRVSSDNVADLHIKYSGSTP [E16I] | 2.58
82 | DGWIRVSSDNVADLHAKYSGSTP [E16A] | 2.5
83 | DGWIRVSSDNVADLHLKYSGSTP [E16L] | 2.76
84 | DGWIRVSSDNVADLHCKYSGSTP [E16C] | 2.62
85 | DGWIRVSSDNVADLHSKYSGSTP [E16S] | 2.64
86 | DGWIRVSSDNVADLHDKYSGSTP [E16D] | 2.58
87 | DGWIRVSSDNVADLHKKYSGSTP [E16K] | 3.12
88 | DGWIRVSSDNVADLHFKYSGSTP [E16F] | 2.46
89 | DGWIRVSSDNVADLHRKYSGSTP [E16R] | 2.97
90 | DGWIRVSSDNVADLHNKYSGSTP [E16N] | 2.95
91 | DGWIRVSSDNVADLHYKYSGSTP [E16Y] | 2.87
92 | DGWIRVSSDNVADLHVKYSGSTP [E16V] | 2.92
93 | DGWIRVSSDNVADLHQKYSGSTP [E16Q] | 2.87
94 | DGWIRVSSDNVADLHHKYSGSTP [E16H] | 2.67
95 | DGWIRVSSDNVADLHPKYSGSTP [E16P] | 3.32
96 | DGWIRVSSDNVADLHTKYSGSTP [E16T] | 2.8
97 | DGWIRVSSDNVADLHMKYSGSTP [E16M] | 2.53
